# Target: HDAC5 protein (Abcam, MA, USA)
# Assay: SPR, Biacore T200; HDAC5 amine-coupled to CM5 chip, peptide as analyte, 1:1 model
# Sequence of HDAC5 protein (Abcam, MA, USA) (chain, as listed by the source): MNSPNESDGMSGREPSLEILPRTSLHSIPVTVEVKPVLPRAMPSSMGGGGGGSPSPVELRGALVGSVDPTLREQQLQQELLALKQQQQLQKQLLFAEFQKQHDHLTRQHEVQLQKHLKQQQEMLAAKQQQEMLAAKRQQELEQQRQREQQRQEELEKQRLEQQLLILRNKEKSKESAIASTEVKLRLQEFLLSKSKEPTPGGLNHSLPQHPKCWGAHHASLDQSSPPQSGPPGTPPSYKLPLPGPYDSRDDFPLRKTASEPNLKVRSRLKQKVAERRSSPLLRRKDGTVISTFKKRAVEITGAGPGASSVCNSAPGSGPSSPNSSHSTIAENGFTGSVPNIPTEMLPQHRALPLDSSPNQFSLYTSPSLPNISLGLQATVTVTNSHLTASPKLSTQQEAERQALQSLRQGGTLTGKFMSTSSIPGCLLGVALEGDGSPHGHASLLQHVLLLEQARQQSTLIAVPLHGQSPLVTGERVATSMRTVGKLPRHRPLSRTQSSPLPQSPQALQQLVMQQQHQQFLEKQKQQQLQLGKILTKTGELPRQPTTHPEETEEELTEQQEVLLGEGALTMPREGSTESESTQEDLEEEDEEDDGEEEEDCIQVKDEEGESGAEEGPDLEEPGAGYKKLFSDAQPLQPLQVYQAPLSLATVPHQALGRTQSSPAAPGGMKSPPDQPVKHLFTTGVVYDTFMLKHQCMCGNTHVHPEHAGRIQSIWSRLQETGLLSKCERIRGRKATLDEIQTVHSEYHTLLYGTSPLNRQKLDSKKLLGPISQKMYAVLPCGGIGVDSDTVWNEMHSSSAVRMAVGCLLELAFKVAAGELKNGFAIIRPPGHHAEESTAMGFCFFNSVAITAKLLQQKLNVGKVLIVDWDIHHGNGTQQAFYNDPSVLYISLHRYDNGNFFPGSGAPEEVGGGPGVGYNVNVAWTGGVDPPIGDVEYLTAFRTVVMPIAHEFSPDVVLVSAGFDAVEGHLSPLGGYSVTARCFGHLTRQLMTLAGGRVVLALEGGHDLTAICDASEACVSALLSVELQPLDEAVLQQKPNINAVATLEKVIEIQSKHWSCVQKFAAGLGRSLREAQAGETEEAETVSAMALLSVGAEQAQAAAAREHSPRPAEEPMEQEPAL
Kd,koff,kon,Binder
444 nM,0.0446 s⁻¹,100000 M⁻¹ s⁻¹,GKMSTRGRKMCRRKK [peptide of SEQ ID NO: 6 (M5)]
86.8 nM,0.00478 s⁻¹,55000 M⁻¹ s⁻¹,GKMSTRGRKMMRRKK [peptide of SEQ ID NO: 8 (M7)]
704 nM,0.0476 s⁻¹,67500 M⁻¹ s⁻¹,GKMSTRGRKCMRRKK [peptide of SEQ ID NO: 7 (M6)]
924 nM,0.0687 s⁻¹,74400 M⁻¹ s⁻¹,GKCSTRGRKCMRRKK [peptide of SEQ ID NO: 2 (M1)]
676 nM,0.0726 s⁻¹,108000 M⁻¹ s⁻¹,GKCSTRGRKCCRRKK (also called AIP) [peptide of SEQ ID NO: 1]
725 nM,0.0595 s⁻¹,82100 M⁻¹ s⁻¹,GKCSTRGRKMCRRKK [peptide of SEQ ID NO: 3 (M2)]
940 nM,0.0679 s⁻¹,72200 M⁻¹ s⁻¹,GKCSTRGRKMMRRKK [peptide of SEQ ID NO: 4 (M3)]
468 nM,0.0309 s⁻¹,65900 M⁻¹ s⁻¹,GKMSTRGRKCCRRKK [peptide of SEQ ID NO: 5 (M4)]

# From patent publication US20240166688A1 (NIBEC, published 2024)
